Source: article PMC9825171 (Nucleic Acids Research, 2022)

T1: human L3MBTL3 fragment 1–523 (human, UniProt Q96JM7-2 1-523)
T1 sequence (looked up): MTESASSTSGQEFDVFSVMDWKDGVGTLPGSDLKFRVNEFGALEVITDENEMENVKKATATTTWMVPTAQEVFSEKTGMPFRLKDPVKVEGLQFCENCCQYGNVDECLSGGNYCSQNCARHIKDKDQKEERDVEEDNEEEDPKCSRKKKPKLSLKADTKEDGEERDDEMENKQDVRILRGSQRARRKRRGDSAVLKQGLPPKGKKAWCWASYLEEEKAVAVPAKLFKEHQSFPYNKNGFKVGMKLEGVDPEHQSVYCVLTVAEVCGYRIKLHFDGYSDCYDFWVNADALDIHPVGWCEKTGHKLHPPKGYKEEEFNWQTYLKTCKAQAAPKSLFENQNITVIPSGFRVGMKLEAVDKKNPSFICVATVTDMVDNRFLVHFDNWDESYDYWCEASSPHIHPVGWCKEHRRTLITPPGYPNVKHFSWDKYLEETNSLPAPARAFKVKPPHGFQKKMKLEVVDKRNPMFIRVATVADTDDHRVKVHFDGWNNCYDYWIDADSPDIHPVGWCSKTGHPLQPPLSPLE


Key:
Experiment in all cases: ITC
[1] = target: T1, human L3MBTL3 fragment 1–523
RBPJ (53–474) E260A [2] = target: T2, RBPJ (53–474) E260A (Mus musculus, UniProt P31266 53-474, E260A)
RBPJ (53–474) E260A [3] = target: T2, RBPJ (53–474) E260A; remark: listed apart in the source
RBPJ (53–474) E260K = RBPJ (53–474) E260K (Mus musculus, UniProt P31266 53-474, E260K)
RBPJ (53–474) V263A = RBPJ (53–474) V263A (Mus musculus, UniProt P31266 53-474, V263A)
RBPJ (53–474) K275M = RBPJ (53–474) K275M (Mus musculus, UniProt P31266 53-474, K275M)
RBPJ (53–474) Q333A = RBPJ (53–474) Q333A (Mus musculus, UniProt P31266 53-474, Q333A)
RBPJ (53–474) Q333A, sequence (P31266 53-474 Q333A): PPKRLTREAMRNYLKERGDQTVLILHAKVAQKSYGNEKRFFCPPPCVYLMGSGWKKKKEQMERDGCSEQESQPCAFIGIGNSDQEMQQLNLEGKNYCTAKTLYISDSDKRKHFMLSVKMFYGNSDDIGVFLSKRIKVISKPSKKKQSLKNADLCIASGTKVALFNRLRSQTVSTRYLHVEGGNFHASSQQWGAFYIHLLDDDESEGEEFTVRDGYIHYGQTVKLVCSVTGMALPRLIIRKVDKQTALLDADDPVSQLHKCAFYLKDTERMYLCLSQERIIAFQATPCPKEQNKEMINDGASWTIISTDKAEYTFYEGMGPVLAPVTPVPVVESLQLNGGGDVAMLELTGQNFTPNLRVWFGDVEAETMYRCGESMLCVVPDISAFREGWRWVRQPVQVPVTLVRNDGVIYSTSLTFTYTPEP

RBPJ (53–474) V263A, sequence (P31266 53-474 V263A): as the sequence (P31266 53-474 Q333A) above, with V211A, A281Q counted along it
RBPJ (53–474) K275M, sequence (P31266 53-474 K275M): as the sequence (P31266 53-474 Q333A) above, with K223M, A281Q counted along it
T2 sequence (P31266 53-474 E260A): as the sequence (P31266 53-474 Q333A) above, with E208A, A281Q counted along it
RBPJ (53–474) E260K, sequence (P31266 53-474 E260K): as the sequence (P31266 53-474 Q333A) above, with E208K, A281Q counted along it

Binder	Ka [1]	Kd [1]	Kd (RBPJ (53–474) E260A [2])	Ka (RBPJ (53–474) E260A [3])	dH (RBPJ (53–474) E260A [3])	Ka (RBPJ (53–474) E260K)	dH (RBPJ (53–474) E260K)	Ka (RBPJ (53–474) V263A)	Kd (RBPJ (53–474) V263A)	dH (RBPJ (53–474) V263A)	Ka (RBPJ (53–474) K275M)	Kd (RBPJ (53–474) K275M)	dH (RBPJ (53–474) K275M)	Ka (RBPJ (53–474) Q333A)	Kd (RBPJ (53–474) Q333A)	dH (RBPJ (53–474) Q333A)
Mus musculus CSL (RBPJ), residues 53–474 (structural core domain), wild type, as used for ITC (domain or fragment) not shown	540000 M⁻¹	1900 nM	–	–	–	–	–	–	–	–	–	–	–	–	–	–
MENVKKATATTTWMVPTAQ (peptide, UniProt Q96JM7-2 52-70, looked up) [L3MBTL3 (52–70) wild-type peptide (19-mer)]	–	–	3730 nM	260000 M⁻¹	-13.6 kcal/mol	220000 M⁻¹	-16.8 kcal/mol	330000 M⁻¹	3000 nM	-10.3 kcal/mol	240000 M⁻¹	4200 nM	-13.7 kcal/mol	760000 M⁻¹	1300 nM	-10.6 kcal/mol
